Patent US20230391886A1

Molecular target: MUC18 (target of JM1-24-3 as used in Bio-Layer Interferometry) (Homo sapiens (Human)) (UniProt P43121)
Experiment: Bio-Layer Interferometry, Octet RED384

Kd: 1.6 nM
B1: JM1-24-3 (antibody, V domains shown)
VH: MSCKASGYAFTSYWMNWIKERPGQGLEWIGAIDPFNGYTEYNHKFKDKAILTADNSSSTVYMQLSSLTSEDSAVYYCARWGGRLYFDYWGQGTTLTVSS
VL: MTQSPSSMYASLGERVTITCKASQDINSFLSWFQQKPGKSPKTLIYRANRLVDGVPSRFSGSGSGQDYSLTISSLEYEDMGIYYCLQYDEFPYTFGGGTKLEIKR
